Assays:
[1] = target: Fes (UniProt P07332); assay: phosphorylation enrichment, bacterial display (enrichment ratio); higher = better substrate or ligand; peptides without Tyr show the background
[2] = test system: AncSZ; assay: as above
[3] = target: EPHB2 (UniProt P29323); assay: as above
[4] = target: Fyn (UniProt P06241); assay: as above
[5] = target: FGFR1 (UniProt P11362); assay: as above
[6] = test system: Fer (mouse); assay: as above
[7] = target: Hck (UniProt P08631); assay: as above
[8] = target: Jak2 (UniProt O60674); assay: as above
[9] = target: MERTK (UniProt Q12866); assay: as above
[10] = target: FGFR3 (UniProt P22607); assay: as above
[11] = target: EPHB1 (UniProt P54762); assay: as above
[12] = test system: c-Abl (mouse); assay: as above
[13] = test system: c-Src; assay: as above
[14] = target: Grb2 SH2 (UniProt P62993); assay: SH2 binding enrichment of the phosphorylated peptide, bacterial display (enrichment ratio); higher = better substrate or ligand; peptides without Tyr show the background
[15] = target: SHP2-C SH2; assay: as above
[16] = target: c-Src SH2; assay: as above
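Wherever SH2 binding enrichment of the phosphorylated peptide, bacterial display is given: peptide library displayed on the E. coli surface as eCPX fusions, selected cells deep-sequenced, score is each peptide's frequency after selection divided by its frequency in the input.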
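Wherever phosphorylation enrichment, bacterial display is given: 11-residue human phosphosite peptides and single-mutation variants displayed on the E. coli surface, counted by deep sequencing, each peptide's frequency after selection divided by its frequency in the unselected input library; frequency after pTyr selection over input frequency; kinase dosed for 20-30% of maximal phosphorylation in three min.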

Chain of FGFR3 (P22607 whole entry, looked up): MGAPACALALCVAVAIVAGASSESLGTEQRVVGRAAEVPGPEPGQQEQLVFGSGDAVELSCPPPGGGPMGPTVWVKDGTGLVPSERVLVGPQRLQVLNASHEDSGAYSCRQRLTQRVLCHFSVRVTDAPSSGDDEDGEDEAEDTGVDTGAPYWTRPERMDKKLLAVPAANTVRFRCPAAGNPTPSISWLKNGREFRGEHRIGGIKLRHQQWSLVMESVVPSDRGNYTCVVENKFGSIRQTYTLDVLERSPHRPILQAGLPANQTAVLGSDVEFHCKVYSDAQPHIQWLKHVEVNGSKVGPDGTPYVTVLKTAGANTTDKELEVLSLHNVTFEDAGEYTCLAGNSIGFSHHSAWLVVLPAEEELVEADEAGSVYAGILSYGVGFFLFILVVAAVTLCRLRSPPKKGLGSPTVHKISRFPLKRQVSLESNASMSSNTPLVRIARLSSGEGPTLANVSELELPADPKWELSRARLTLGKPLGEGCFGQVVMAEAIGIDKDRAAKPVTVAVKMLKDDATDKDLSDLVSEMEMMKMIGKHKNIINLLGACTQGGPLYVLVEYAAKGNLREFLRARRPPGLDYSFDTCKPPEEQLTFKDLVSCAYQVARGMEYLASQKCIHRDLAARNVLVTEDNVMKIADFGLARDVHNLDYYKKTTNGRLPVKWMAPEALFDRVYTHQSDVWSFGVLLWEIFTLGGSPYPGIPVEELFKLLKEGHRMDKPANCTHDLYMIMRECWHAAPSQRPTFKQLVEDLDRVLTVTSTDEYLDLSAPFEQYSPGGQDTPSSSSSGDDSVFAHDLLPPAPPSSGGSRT
Chain of FGFR1 (P11362 whole entry, looked up): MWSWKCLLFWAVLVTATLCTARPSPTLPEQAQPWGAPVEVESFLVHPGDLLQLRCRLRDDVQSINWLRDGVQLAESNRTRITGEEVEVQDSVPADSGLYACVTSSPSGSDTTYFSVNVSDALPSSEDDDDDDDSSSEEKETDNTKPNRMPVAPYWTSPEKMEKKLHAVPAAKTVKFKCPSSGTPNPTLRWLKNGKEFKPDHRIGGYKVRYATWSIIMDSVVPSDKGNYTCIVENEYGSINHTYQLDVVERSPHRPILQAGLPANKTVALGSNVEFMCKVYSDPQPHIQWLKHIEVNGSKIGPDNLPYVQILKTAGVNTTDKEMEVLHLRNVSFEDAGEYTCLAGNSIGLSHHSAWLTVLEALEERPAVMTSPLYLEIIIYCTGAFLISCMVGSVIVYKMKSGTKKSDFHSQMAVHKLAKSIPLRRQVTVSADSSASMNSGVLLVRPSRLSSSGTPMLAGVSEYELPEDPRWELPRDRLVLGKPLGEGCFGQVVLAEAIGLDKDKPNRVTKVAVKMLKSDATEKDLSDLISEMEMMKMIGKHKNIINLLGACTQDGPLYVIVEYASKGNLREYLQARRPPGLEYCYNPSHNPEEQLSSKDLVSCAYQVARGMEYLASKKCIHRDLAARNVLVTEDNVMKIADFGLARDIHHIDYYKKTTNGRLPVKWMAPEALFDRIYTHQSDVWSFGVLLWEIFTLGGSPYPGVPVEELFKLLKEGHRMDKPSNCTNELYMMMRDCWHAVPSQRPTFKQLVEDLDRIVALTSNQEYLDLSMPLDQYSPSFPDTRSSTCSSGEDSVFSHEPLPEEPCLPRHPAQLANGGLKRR
Chain of Fyn (P06241 whole entry, looked up): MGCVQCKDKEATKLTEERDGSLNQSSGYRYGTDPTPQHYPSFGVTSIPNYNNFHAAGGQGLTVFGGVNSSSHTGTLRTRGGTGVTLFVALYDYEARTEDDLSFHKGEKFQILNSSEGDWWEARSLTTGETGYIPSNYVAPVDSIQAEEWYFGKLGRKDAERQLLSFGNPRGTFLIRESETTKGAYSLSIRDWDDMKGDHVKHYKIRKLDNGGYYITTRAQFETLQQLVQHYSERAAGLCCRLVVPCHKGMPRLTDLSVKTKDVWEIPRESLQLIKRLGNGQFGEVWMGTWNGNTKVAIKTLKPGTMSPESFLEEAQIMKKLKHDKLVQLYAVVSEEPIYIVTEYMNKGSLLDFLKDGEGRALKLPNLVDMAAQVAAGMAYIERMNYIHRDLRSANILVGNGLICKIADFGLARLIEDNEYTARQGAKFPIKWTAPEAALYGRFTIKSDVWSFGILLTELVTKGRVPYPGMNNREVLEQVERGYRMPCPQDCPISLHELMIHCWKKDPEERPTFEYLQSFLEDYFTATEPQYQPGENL
Chain of Jak2 (O60674 whole entry, looked up): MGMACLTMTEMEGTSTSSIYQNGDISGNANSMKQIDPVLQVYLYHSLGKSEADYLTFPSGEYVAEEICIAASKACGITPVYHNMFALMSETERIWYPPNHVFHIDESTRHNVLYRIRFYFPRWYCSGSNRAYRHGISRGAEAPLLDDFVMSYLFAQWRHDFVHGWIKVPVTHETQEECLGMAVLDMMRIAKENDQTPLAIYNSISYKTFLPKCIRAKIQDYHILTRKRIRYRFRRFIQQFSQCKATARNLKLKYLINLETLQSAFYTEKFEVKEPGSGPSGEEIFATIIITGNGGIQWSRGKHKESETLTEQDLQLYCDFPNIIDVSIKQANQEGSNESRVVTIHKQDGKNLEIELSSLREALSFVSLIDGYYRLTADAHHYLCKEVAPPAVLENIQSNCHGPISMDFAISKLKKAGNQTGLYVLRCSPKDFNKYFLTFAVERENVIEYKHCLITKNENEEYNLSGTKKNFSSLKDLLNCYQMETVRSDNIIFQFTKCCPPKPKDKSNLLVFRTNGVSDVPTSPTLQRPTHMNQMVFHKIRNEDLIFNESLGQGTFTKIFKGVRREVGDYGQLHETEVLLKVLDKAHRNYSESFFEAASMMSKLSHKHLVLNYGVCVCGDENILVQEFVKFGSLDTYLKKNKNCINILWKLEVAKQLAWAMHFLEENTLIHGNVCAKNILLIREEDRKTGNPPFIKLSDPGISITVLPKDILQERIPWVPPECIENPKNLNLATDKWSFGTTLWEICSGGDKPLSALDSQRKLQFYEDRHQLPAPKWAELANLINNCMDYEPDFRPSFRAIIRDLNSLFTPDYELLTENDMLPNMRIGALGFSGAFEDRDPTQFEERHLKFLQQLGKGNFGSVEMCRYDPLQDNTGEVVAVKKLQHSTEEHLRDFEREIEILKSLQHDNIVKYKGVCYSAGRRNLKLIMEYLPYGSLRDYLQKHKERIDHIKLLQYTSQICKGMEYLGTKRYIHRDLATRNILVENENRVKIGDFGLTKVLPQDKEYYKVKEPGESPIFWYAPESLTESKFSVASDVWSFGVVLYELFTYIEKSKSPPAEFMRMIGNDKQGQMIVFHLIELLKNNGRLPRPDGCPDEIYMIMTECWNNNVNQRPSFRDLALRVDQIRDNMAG
Chain of MERTK (Q12866 whole entry, looked up): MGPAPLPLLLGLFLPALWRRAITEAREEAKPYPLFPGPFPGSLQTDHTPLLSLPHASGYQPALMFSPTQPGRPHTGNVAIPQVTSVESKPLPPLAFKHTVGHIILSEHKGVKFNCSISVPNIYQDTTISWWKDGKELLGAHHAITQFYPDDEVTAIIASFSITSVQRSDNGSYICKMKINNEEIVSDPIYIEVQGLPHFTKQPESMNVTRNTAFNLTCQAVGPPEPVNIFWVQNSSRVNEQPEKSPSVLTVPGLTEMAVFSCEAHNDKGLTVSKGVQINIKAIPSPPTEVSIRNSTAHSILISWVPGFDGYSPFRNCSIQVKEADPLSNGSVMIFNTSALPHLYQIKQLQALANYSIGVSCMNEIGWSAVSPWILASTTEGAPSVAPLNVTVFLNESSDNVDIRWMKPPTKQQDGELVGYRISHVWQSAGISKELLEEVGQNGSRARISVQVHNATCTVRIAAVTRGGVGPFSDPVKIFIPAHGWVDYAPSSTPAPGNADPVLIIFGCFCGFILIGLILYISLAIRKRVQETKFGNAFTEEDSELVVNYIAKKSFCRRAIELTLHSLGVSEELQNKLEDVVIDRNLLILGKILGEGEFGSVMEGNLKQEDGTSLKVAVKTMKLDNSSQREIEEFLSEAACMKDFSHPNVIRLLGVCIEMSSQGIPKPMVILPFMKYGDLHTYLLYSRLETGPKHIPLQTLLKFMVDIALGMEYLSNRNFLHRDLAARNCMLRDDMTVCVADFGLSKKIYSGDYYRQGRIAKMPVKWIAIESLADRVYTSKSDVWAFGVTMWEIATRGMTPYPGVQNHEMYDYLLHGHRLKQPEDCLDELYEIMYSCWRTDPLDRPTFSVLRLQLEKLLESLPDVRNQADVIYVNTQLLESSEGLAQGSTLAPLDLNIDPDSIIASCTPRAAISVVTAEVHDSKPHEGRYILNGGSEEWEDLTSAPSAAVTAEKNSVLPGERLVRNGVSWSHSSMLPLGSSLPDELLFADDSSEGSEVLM
Chain of Grb2 SH2 (P62993 whole entry, looked up): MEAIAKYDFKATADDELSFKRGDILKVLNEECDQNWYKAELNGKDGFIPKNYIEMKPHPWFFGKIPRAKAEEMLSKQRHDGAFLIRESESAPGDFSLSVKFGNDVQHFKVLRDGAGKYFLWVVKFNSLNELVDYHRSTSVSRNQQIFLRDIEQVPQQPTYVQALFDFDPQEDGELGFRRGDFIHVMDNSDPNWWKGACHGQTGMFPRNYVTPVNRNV
Chain of Hck (P08631 whole entry, looked up): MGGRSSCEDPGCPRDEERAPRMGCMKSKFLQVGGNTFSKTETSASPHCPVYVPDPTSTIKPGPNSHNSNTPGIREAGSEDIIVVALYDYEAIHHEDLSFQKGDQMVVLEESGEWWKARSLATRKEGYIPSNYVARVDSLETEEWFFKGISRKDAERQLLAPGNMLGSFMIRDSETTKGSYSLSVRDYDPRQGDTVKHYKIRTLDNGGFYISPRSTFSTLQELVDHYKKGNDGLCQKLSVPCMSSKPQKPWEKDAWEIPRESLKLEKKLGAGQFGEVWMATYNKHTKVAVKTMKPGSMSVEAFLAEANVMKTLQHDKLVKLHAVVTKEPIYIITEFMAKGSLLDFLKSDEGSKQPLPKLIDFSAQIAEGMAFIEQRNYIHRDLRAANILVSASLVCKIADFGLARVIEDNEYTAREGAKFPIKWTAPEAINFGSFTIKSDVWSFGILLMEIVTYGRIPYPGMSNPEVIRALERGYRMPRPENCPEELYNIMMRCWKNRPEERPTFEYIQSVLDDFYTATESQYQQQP

| Sequence | phosphorylation enrichment [1] | phosphorylation enrichment [2] | phosphorylation enrichment [3] | phosphorylation enrichment [4] | phosphorylation enrichment [5] | phosphorylation enrichment [6] | phosphorylation enrichment [7] | phosphorylation enrichment [8] | phosphorylation enrichment [9] | phosphorylation enrichment [10] | phosphorylation enrichment [11] | phosphorylation enrichment [12] | phosphorylation enrichment [13] | SH2 binding enrichment [14] | SH2 binding enrichment [15] | SH2 binding enrichment [16] |
| --- | --- | --- | --- | --- | --- | --- | --- | --- | --- | --- | --- | --- | --- | --- | --- | --- |
| NHYKRYNLCAE [PTEN_Y68_I67R] | 0.82 | 0.74 | 0.516 | 0.512 | 0.557 | 0.488 | 0.542 | 0.744 | 0.446 | 0.554 | 0.467 | 0.709 | 0.508 | 0.93 | 0.769 | 0.662 |
| ARKWGYTVKGI [OAT_Y158] | 0.912 | 0.914 | 0.448 | 0.423 | 0.437 | 0.352 | 0.354 | 0.668 | 0.377 | 0.517 | 0.503 | 0.724 | 0.327 | 0.779 | 0.782 | 0.479 |
| NGRQCYSCRGN [PLAUR_Y217_K220R] | 0.461 | 0.375 | 0.319 | 0.299 | 0.356 | 0.274 | 0.35 | 0.39 | 0.346 | 0.31 | 0.261 | 0.374 | 0.294 | 1.03 | 0.769 | 1.31 |
| KRAIGYYSATS [FAM120A_Y327] | 0.472 | 0.477 | 0.387 | 0.456 | 0.412 | 0.383 | 0.406 | 0.439 | 0.55 | 0.389 | 0.366 | 0.437 | 0.359 | 0.864 | 0.821 | 1.41 |
| MAPQMYESHLP [NCAPD2_Y6_F8S] | 0.555 | 0.501 | 0.702 | 0.45 | 0.477 | 9.41 | 0.568 | 0.524 | 0.466 | 0.657 | 0.548 | 0.437 | 0.378 | 0.76 | 0.495 | 0.71 |
| RAMPVYKKAEH [TP63_Y231] | 0.379 | 0.462 | 0.26 | 0.337 | 0.304 | 0.28 | 0.27 | 0.306 | 0.292 | 0.238 | 0.197 | 0.301 | 0.288 | 1.29 | 0.459 | 0.351 |
| FADIAYNFRRG [PAH_Y166_H170R_YF] | 0.649 | 0.966 | 0.411 | 0.409 | 0.43 | 0.39 | 0.429 | 0.602 | 0.396 | 0.539 | 0.637 | 0.462 | 0.45 | 0.799 | 0.822 | 0.541 |
| AHAGEYGAEAL [HBA1_Y25] | 0.816 | 0.675 | 0.394 | 0.387 | 0.35 | 0.382 | 0.464 | 0.66 | 0.343 | 0.517 | 0.368 | 0.629 | 0.392 | 0.683 | 0.676 | 0.396 |
| LLINKYGLSAH [SCP2_Y151] | 0.99 | 0.877 | 0.669 | 0.443 | 0.488 | 0.619 | 0.428 | 0.838 | 0.372 | 0.708 | 0.71 | 0.559 | 0.428 | 0.869 | 0.821 | 0.349 |
| GLGVTYEQALA [MAP2_Y996] | 0.686 | 0.712 | 0.471 | 0.464 | 0.437 | 0.423 | 0.439 | 0.724 | 0.372 | 0.477 | 0.48 | 1.18 | 0.503 | 0.784 | 0.495 | 0.572 |
| GVRLFYRVMES [RB1_Y454_YF] | 1.42 | 1.29 | 0.576 | 0.448 | 0.488 | 0.517 | 0.541 | 1.38 | 0.381 | 0.815 | 0.655 | 0.83 | 0.39 | 0.624 | 0.684 | 0.429 |
| DEEEEYEYMNR [ERBB3_Y1197_D1194E] | 1.17 | 1.17 | 0.625 | 0.567 | 0.536 | 0.466 | 0.484 | 1 | 0.404 | 0.665 | 0.493 | 0.631 | 0.408 | 0.817 | 0.645 | 0.526 |
| EKIANYKEGTF [CLRN1_Y171_YF] | 0.823 | 0.967 | 0.474 | 0.465 | 0.461 | 0.408 | 0.4 | 0.724 | 0.498 | 0.537 | 0.53 | 0.543 | 0.5 | 0.91 | 0.554 | 0.443 |
| FLAVGYHKPHI [IDS_Y225] | 0.799 | 0.741 | 0.59 | 0.495 | 0.408 | 0.561 | 0.602 | 0.733 | 0.368 | 0.647 | 0.356 | 0.709 | 0.448 | 1.21 | 1.27 | 1.18 |
| VPLATYMQIYK [RPL21_Y30_R32Q] | 0.636 | 0.749 | 0.737 | 0.975 | 0.448 | 0.315 | 2.01 | 0.51 | 0.541 | 0.53 | 1.98 | 0.565 | 1.16 | 0.909 | 0.791 | 0.73 |
| AKRKNYAPVTM [CFAP47_Y557_A561T] | 0.518 | 0.459 | 0.364 | 0.387 | 0.418 | 0.286 | 0.371 | 0.351 | 0.431 | 0.34 | 0.365 | 0.454 | 0.445 | 1.03 | 1.16 | 1.19 |
